Data as given in publication PMC6168597, “Mutations at the hydrophobic core affect Hal3 trimer stability, reducing its Ppz1 inhibitory capacity but not its PPCDC moonlighting function” (Scientific Reports, 2018).
Substitutions are numbered along the chain they refer to. Names may count otherwise.

T1: GST-fused full length Ppz1 (S. cerevisiae, UniProt P26570 1-692)
T1 construct: Ser/Thr protein phosphatase Ppz1, S. cerevisiae, full length; also called GST-Ppz1; source: E. coli BL21 (DE3) RIL, purified on glutathione-agarose
T1 sequence (looked up): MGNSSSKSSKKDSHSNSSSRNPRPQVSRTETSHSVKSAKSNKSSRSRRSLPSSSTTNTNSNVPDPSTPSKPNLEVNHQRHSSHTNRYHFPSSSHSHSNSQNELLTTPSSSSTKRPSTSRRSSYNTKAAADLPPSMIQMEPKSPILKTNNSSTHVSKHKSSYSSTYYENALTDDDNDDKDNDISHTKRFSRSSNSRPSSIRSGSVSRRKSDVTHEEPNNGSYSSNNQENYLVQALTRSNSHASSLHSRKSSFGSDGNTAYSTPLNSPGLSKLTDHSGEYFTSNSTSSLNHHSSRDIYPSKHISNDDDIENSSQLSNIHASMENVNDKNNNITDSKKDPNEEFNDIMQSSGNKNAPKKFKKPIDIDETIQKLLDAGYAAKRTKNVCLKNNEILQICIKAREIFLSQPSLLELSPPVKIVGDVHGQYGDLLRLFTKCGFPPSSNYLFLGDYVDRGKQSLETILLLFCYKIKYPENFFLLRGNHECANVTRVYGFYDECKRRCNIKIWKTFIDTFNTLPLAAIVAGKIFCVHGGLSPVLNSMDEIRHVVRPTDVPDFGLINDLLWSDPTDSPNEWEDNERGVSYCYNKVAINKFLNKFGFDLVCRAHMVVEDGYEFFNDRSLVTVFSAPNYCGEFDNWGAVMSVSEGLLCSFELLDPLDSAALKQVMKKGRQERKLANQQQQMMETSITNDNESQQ

B1: HA-tagged ScHal3 L403N L405E expressed in S. cerevisiae from pWS93 (natural protein, UniProt P36024 1-562, looked up)
chain: MTAVASTSGKQDADHNQSIECPRFSRGQKEILLDHEDAKGKDSIINSPVSGRQSISPTLSNATTTTTKSIMNATGTSGAVVSNTPEPGLKRVPAVTFSDLKQQQKQDSLTQLKNDSERTKSPNSNPAPVSNSIPGNHAVIPNHTNTSRTTQLSGSPLVNEMKDYDPKKKDSALKIVDTMKPDKIMATSTPISRENNKVTAKAPTSITLRKEDAQDQANNVSGQINVRSTPEETPVKQSVIPSIIPKRENSKNLDPRLPQDDGKLHVLFGATGSLSVFKIKPMIKKLEEIYGRDRISIQVILTQSATQFFEQRYTKKIIKSSEKLNKMSQYESTPATPVTPTPGQCNMAQVVELPPHIQLWTDQDEWDAWKQRTDPVLHIELRRWADILVVAPLTANTLSKIANGECDNLLTSVIRAWNPSYPILLAPSMVSSTFNSMMTKKQLQTIKEEMSWVTVFKPSEKVMDINGDIGLGGMMDWNEIVNKIVMKLGGYPKNNEEEDDDEDEEEDDDEEEDTEDKNENNNDDDDDDDDDDDDDDDDDDDDDDDDEDEDEAETPGIIDKHQ
notes: Hal3 (Sis2), S. cerevisiae, with L403N and L405E; insert released from the pGEX construct and cloned into pWS93; also called the double mutated variant; source: S. cerevisiae IM021 (ppz1 hal3), expressed from pWS93, in protein extract
B2: HA-tagged ScHal3 L405E expressed in S. cerevisiae from pWS93 (natural protein, UniProt P36024 1-562, looked up)
chain: B1 chain with N403L
notes: Hal3 (Sis2), S. cerevisiae, with L405E; insert released from the pGEX construct and cloned into pWS93; source: S. cerevisiae IM021 (ppz1 hal3), expressed from pWS93, in protein extract
B3: S. cerevisiae Hal3 (ScHal3), native, recombinant, GST removed (natural protein, UniProt P36024 1-562, looked up)
chain: B1 chain with N403L, E405L
notes: the methods speak of 'each full-length recombinant protein' and the predicted homotrimer is ~190 kDa; also called native ScHal3; WT; source: E. coli BL21 (DE3) RIL, GST fusion purified on glutathione-agarose, GST cleaved with PreScission protease
B4: ScHal3 L403N, recombinant, GST removed (natural protein, S. cerevisiae, UniProt P36024 1-562, looked up)
chain: B1 chain with E405L
notes: Hal3 (Sis2), S. cerevisiae, in pGEX-6P-1 with L403N; also called the L403 variant; source: E. coli BL21 (DE3) RIL, GST fusion purified on glutathione-agarose, GST cleaved with PreScission protease
B5: Arabidopsis thaliana Hal3 (AtHal3a), native, recombinant, GST removed (enzyme, UniProt Q9SWE5 1-209, looked up)
chain: MENGKRDRQDMEVNTTPRKPRVLLAASGSVAAIKFGNLCHCFTEWAEVRAVVTKSSLHFLDKLSLPQEVTLYTDEDEWSSWNKIGDPVLHIELRRWADVLVIAPLSANTLGKIAGGLCDNLLTCIIRAWDYTKPLFVAPAMNTLMWNNPFTERHLLSLDELGITLIPPIKKRLACGDYGNGAMAEPSLIYSTVRLFWESQAHQQTGGTS
notes: AtHal3a, Arabidopsis thaliana, wild type ORF amplified from the AtHal3a cDNA and cloned into pGEX-6P-1; Flavoprotein (FMN); Theoretical mass of the trimer ~69 kDa; also called native AtHal3; source: E. coli BL21 (DE3) RIL, GST fusion purified on glutathione-agarose, GST cleaved with PreScission protease
B6: AtHal3 L117E, recombinant, GST removed (enzyme, Arabidopsis thaliana, UniProt Q9SWE5 1-209, looked up)
chain: B5 chain with L117E
notes: AtHal3a, Arabidopsis thaliana, ORF in pGEX-6P-1 with L117E; source: E. coli BL21 (DE3) RIL, GST fusion purified on glutathione-agarose, GST cleaved with PreScission protease
B7: AtHal3 G115N L117E, recombinant, GST removed (enzyme, Arabidopsis thaliana, UniProt Q9SWE5 1-209, looked up)
chain: B5 chain with G115N, L117E
notes: AtHal3a, Arabidopsis thaliana, ORF in pGEX-6P-1 with G115N and L117E; source: E. coli BL21 (DE3) RIL, GST fusion purified on glutathione-agarose, GST cleaved with PreScission protease

molecular target: T1, GST-fused full length Ppz1; assay: pull-down; 4 ug GST-Ppz1 or GST-Ppz1-Cter on glutathione-agarose beads, 600 ug protein extract of IM021 yeast expressing HA-tagged ScHal3 versions, anti-HA immunoblot; signal related to Ponceau-stained bait, native ScHal3 as the unit; conditions: one partner purified

interaction relative to native ScHal3 [%] | Binder
~50 | B1
~50 | B2

Molecular target: the molecule itself
Assay: cross-linking; purified GST-free proteins (1 or 2 ug) treated with 0.01% glutaraldehyde, SDS-PAGE, Coomassie staining
Conditions: not given

Binder | stoichiometry N
B3 | 3
B4 | 3
B5 | 3
B6 | 3
B7 | 3
